Molecular target: T1, XT-II (Homo sapiens, UniProt Q9H1B5, R305T)
T1 construct: polyhistidine leader of vector pcDNA4/HisMax-TOPO (own knowledge of the vector); made in house; host or cells: CHO-K1, transient transfection with pCG226-XT-II; medium treated with anti-Xpress antibody and protein G agarose beads
T1 sequence (Q9H1B5 46-865 R305T): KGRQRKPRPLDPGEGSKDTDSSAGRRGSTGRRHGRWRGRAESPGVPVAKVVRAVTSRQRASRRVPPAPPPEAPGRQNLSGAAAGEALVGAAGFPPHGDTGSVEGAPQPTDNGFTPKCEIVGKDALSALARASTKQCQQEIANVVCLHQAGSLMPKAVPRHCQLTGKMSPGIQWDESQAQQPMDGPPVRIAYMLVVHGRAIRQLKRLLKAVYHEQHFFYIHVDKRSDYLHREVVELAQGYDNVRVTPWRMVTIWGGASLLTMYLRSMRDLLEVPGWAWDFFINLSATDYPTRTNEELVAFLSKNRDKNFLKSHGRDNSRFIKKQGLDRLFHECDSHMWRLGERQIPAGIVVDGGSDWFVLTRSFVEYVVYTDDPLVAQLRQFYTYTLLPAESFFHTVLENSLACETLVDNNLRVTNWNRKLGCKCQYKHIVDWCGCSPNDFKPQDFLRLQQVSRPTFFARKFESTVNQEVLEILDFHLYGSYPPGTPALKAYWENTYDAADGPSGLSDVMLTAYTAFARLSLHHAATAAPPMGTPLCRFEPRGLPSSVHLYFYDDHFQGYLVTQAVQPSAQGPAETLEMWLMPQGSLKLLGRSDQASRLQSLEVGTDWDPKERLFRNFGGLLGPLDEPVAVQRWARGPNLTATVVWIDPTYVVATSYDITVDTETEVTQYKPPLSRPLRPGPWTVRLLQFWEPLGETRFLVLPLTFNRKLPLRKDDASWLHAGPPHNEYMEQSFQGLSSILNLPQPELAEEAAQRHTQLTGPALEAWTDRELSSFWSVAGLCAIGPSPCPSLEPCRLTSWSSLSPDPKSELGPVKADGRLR
Assay: XT activity assay of XT-II fused to aminoterminal peptide tag, expressed in CHO-K1 cells
Assay type: biochemical
Description: The degenerate primers PFF-sense and Lysc-inv1 which were designed upon the amino acid sequence of proteolytic cleaved peptides of human XT-I were used in a PCR reaction with first strand cDNA of placenta poly(A)^+ mRNA as template. […] To clone the complete coding sequence of the novel cDNA, the RACE strategy was employed. The cDNA finally obtained was 3608 bp (FIG. 8A) and contained a single open reading frame encoding a protein of 865 amino acids with a molecular mass of 97.000. The 3′-untranslated region is 850 bp and a 5′-untranslated region of 149 bp was identified with an in-frame stop codon upstream of the ATG codon. […] No detectable XT activity was recovered by the affinity purification from a control transfection sample. The substrate specificity of the recombinant XT-I was similar to that of the XT-I isolated from human body fluids and cell culture supernatants.
Determination of XT activity. Determination of XT activity is based on the incorporation of [14C]-D-xylose into the recombinant bikunin according to a previously described method (Brinkmann et al., 1997, J. Biol. Chem., 272, 11171-11175). For analysis of the substrate specificity of the recombinant xylosyltransferases synthetic peptides containing the XT recognition sequence were used as acceptor. […] Incorporated radioactivity was determined by liquid scintillation counting. […]

B1: XT-II: human xylosyltransferase isoform 2, 865 amino acids, FIG. 8B (protein, UniProt Q9H1B5 1-865, looked up)
chain: MVASARVQKLVRRYKLAIATALAILLLQGLVVWSFSGLEEDEAGEKGRQRKPRPLDPGEGSKDTDSSAGRRGSTGRRHGRWRGRAESPGVPVAKVVRAVTSRQRASRRVPPAPPPEAPGRQNLSGAAAGEALVGAAGFPPHGDTGSVEGAPQPTDNGFTPKCEIVGKDALSALARASTKQCQQEIANVVCLHQAGSLMPKAVPRHCQLTGKMSPGIQWDESQAQQPMDGPPVRIAYMLVVHGRAIRQLKRLLKAVYHEQHFFYIHVDKRSDYLHREVVELAQGYDNVRVTPWRMVTIWGGASLLRMYLRSMRDLLEVPGWAWDFFINLSATDYPTRTNEELVAFLSKNRDKNFLKSHGRDNSRFIKKQGLDRLFHECDSHMWRLGERQIPAGIVVDGGSDWFVLTRSFVEYVVYTDDPLVAQLRQFYTYTLLPAESFFHTVLENSLACETLVDNNLRVTNWNRKLGCKCQYKHIVDWCGCSPNDFKPQDFLRLQQVSRPTFFARKFESTVNQEVLEILDFHLYGSYPPGTPALKAYWENTYDAADGPSGLSDVMLTAYTAFARLSLHHAATAAPPMGTPLCRFEPRGLPSSVHLYFYDDHFQGYLVTQAVQPSAQGPAETLEMWLMPQGSLKLLGRSDQASRLQSLEVGTDWDPKERLFRNFGGLLGPLDEPVAVQRWARGPNLTATVVWIDPTYVVATSYDITVDTETEVTQYKPPLSRPLRPGPWTVRLLQFWEPLGETRFLVLPLTFNRKLPLRKDDASWLHAGPPHNEYMEQSFQGLSSILNLPQPELAEEAAQRHTQLTGPALEAWTDRELSSFWSVAGLCAIGPSPCPSLEPCRLTSWSSLSPDPKSELGPVKADGRLR
modifications: full-length
enzymatic transfer of xylose to the acceptor peptides: no enzymatic transfer of xylose

From patent US20050070001A1, “Xylosyltransferase and isoforms thereof” (priority 1999, published 2005)
